Measured values reported in patent US20230349903A1, “ASSAYS AND REAGENTS FOR CHARACTERIZATION OF MHCI PEPTIDE BINDING” (priority 2020, published 2023).
Blank lines part the entries; values can stand above or below the sequence they belong to. Where no end group is shown, it is not given here. [ ]: non-standard residue; d: D form. code J = not defined here

Experiments:
HLA-A*02:03 = HLA-A*02:03 (Homo sapiens, UniProt P04439, A173T/D140Y/D185E/D98H/E277Q/G131W/G231S/I119V/I121R/I166T/I218V/L180W/L300P/L318F/N151K/N90K/P208A/P217A/Q86G/Q94H/R138H/R169H/T345S); assay: ELISA of small scale MHCI refold (anti-HLA W6/32 capture, anti-B2M detection); type: binding; parameters: inferred from enzymatic biotinylation; made in house; host or cells: Escherichia coli; conditions: for S/N ELISA value: A*02:03, 1.0 μg/mL MHCI, no peptide control as background; for normalized ELISA OD (signal to background): A*02:03, 1 μg/mL MHCI, normalized to no peptide control
C*02:02 [1] = target: T1, C*02:02 (Homo sapiens, UniProt P10321, A176E/A235T/A330V/A97T/C350S/D114A/D33Y/G40S/L171W/L180W/L218V/M285V/M309V/M331V/N104K/P208H/Q277E/Q291P/R45H/S101N/S123Y/S297R/S48A/T187E/T329A/T363A/V319A); assay: as above; type: binding; conditions: for S/N ELISA value: C*02:02, 1.0 μg/mL MHCI, no peptide control as background; for normalized ELISA OD: C*02:02, 1 μg/mL MHCI, normalized to no peptide control
Protocol: Recombinant HLA alleles and B2M were over-expressed in E. coli, purified from inclusion bodies, and stored under denaturing conditions (6M Guanidine HCL, 25 mM Tris pH 8) in −80° C. as described above. In a 200 μL reaction, the peptide (0.01 mM, per well), oxidized and reduced glutathione (0.5 mM and 4.0 mM, respectively), recombinant HLA alleles (0.03 mg/mL) and B2M (0.01 mg/mL) were all combined within a 96-well plate. Refold screens were performed with five different peptides for each HLA of interest as described above (Table 3). and the MHCI complex was incubated at 4° C. for 3-5 days to allow refolding. Refolded samples were analyzed by ELISA, and the highest performing peptide was selected for further analysis. All data was analyzed relative to the negative control refold, which was performed in the absence of peptide (labeled NP). HLA-A*02:01 refolded with the CMV pp65 viral epitope was used as a positive control. […]
(§1) A 384-well Nunc Maxisorp plate (ThermoFisher Scientific, Waltham, MA) was coated with 25 μL/well of mouse IgG2a anti-HLA ABC clone W6/32 (Novus Biological, Littleton, Co.) at 8 μg/mL in coating buffer (0.05 sodium carbonate pH 9.6). After overnight incubation at 4° C., the plate was washed 3 times with wash buffer (PBS, 0.5% Tween 20). The plate was then blocked with 50 μL/well of Block buffer (PBS, 0.5% BSA, 10 ppm Proclin) and incubated at room temperature (RT) with agitation for 1 hour. […] The plate was washed six times and 25 IL of biotinylated mouse IgG1 anti-human B2M (BioLegend, San Diego, CA) at 100 ng/mL in assay diluent was added to each well. After a 1 hour incubation at RT and six washes, 25 μL/well of Streptavidin-Horseradish Peroxidase (GE, Marlborough, MA) was added to the plate and incubated for 30 min at RT. The color reaction was developed with TMB peroxidase substrate (Moss, Pasadena, MD) at RT for 15 min, and the reaction was stopped with 1M phosphoric acid. The absorbance was measured at a wavelength of […] with a reference at 620 nm. Refolded MHC monomers without peptide or irrelevant peptide were used as the negative controls for each allele to normalize the signal.
(§2) Recombinant HLA alleles and B2M were over-expressed in E. coli, purified from inclusion bodies, and stored under denaturing conditions (6M Guanidine HCl, 25 mM Tris pH 8) in −80° C. as described above. In a 200 μL reaction, the peptide (0.01 mM, per well), oxidized and reduced glutathione (0.5 mM and 4.0 mM, respectively), recombinant HLA alleles (0.03 mg/mL) and B2M (0.01 mg/mL) were all combined in a 96-well plate. Refolds were performed with five different peptides for each HLA of interest as described above (Table 3), and the MHCI complex was incubated at 4° C. for 3-5 days to allow refolding. MHCI complex refolds were also performed in the absence of a peptide and used as the negative control to calculate the signal to noise (S/N) for the experimental peptides. Given that there should have been minimal properly refolded complex in the absence of a peptide, these samples provided the overall background of the assay to calculate the S/N value. HLA-A*02:01 refolded with the CMV pp65 viral epitope was used as a positive control. Peptides yielding the highest signal to noise ratio (S/N) were selected for further analysis.
Two different ELISA assays were evaluated to optimize the sensitivity of the assay. In the first assay format, the refolded MHCI was captured with anti-B2M antibody and detected with pan ABC anti-HLA antibody (clone W6/32). In the second assay format, MHCI was captured with the pan ABC anti-HLA antibody (clone W6/32) and detected with the anti-B2M antibody. In both assays, a 384-well Nunc Maxisorp plate (Thermo Fisher Scientific, Waltham, MA) was coated with 25 μL/well of capture antibody, mouse IgG1 anti-human B2M (BioLegend, San Diego, CA) or mouse IgG2a anti-HLA ABC clone W6/32 (Novus Biological, Littleton, Co.), at 8 μg/mL in coating buffer (0.05 sodium carbonate pH 9.6). […]

C*02:02 [2] = target: T1, C*02:02; conditions: IEDB value, cellular MHC/mass spectrometry; cited from earlier work
B*35:03 [3] = target: T2, B*35:03 (Homo sapiens, UniProt P01889, A329T/A93T/A95T/C349S/D201E/D98Y/E176V/E187L/E204Q/E69T/I218V/K202T/L119I/Q94N/R155S/R180L/S121R/S35A/S48A/T118I/V127L/V306I/V36M/Y140F/Y91F); assay: ELISA of small scale MHCI refold (anti-HLA W6/32 capture, anti-B2M detection); type: binding; parameters: inferred from enzymatic biotinylation; made in house; host or cells: Escherichia coli; conditions: for S/N ELISA value: B*35:03, 1.0 μg/mL MHCI, no peptide control as background; for normalized ELISA OD (signal to background): B*35:03, 1 μg/mL MHCI, normalized to no peptide control
Protocol: Recombinant HLA alleles and B2M were over-expressed in E. coli, purified from inclusion bodies, and stored under denaturing conditions (6M Guanidine HCL, 25 mM Tris pH 8) in −80° C. as described above. In a 200 μL reaction, the peptide (0.01 mM, per well), oxidized and reduced glutathione (0.5 mM and 4.0 mM, respectively), recombinant HLA alleles (0.03 mg/mL) and B2M (0.01 mg/mL) were all combined within a 96-well plate. Refold screens were performed with five different peptides for each HLA of interest as described above (Table 3). and the MHCI complex was incubated at 4° C. for 3-5 days to allow refolding. Refolded samples were analyzed by ELISA, and the highest performing peptide was selected for further analysis. All data was analyzed relative to the negative control refold, which was performed in the absence of peptide (labeled NP). HLA-A*02:01 refolded with the CMV pp65 viral epitope was used as a positive control.
Formation of stable conditional MHCI complexes upon refolding with the redesigned peptides were identified by ELISA as described above. […] The original peptide (containing no UV amino acid substitution) was used as a positive control. All peptides used here were purchased from JPT (www.jpt.com) or ELIM Biopharm (www.elimbio.com).
as §1, §2
Two different ELISA assays were evaluated to optimize the sensitivity of the assay. In the first assay format, the refolded MHCI was captured with anti-B2M antibody and detected with pan ABC anti-HLA antibody (clone W6/32). In the second assay format, MHCI was captured with the pan ABC anti-HLA antibody (clone W6/32) and detected with the anti-B2M antibody. […]

C*14:02 = C*14:02 (Homo sapiens, UniProt P10321, A176E/A330V/A35S/A97T/C350S/D114A/D33S/L171W/L180R/L218V/M285V/M309V/M331V/P208H/Q277E/Q291P/R121W/R243W/S123F/S297R/S48A/T329A/T363A/V319A); conditions: IEDB value, purified MHC/direct/fluorescence, read-out: dissociation constant KD; cited from earlier work
B*35:03 [4] = target: T2, B*35:03; conditions: IEDB value, cellular MHC/mass spectrometry; cited from earlier work
A*26:01 = A*26:01 (Homo sapiens, UniProt P04439, A114D/A173T/A270S/D101N/D185E/E277Q/E87N/F33Y/G231S/I121R/I218V/K168Q/L180W/L300P/L318F/P208A/P217A/Q86R/Q94H/R138Q/S129P/T187R/T323A/T345S/V100A/V358M); conditions: IEDB value, purified MHC/direct/fluorescence, read-out: dissociation constant KD (~EC50); cited from earlier work
B*18:01 = B*18:01 (Homo sapiens, UniProt P01889, A329T/A93T/A95T/C349S/D201E/D54G/D98Y/E176V/E187T/E204Q/E69T/K202T/Q94N/R155S/R180L/S121R/V306I/Y140S/Y195H/Y33H/Y91S); conditions: IEDB value, purified MHC/competitive/radioactivity, read-out: half maximal inhibitory concentration (IC50); cited from earlier work

Sequence: FMYJDFHFI [Peptide A0203-02-02]
- S/N ELISA value (HLA-A*02:03): highest S/N value
- normalized ELISA OD (signal to background) (HLA-A*02:03): highest normalized ELISA OD value

Sequence: FJAEAQKL (FXAEAQKL; not fully specified) [Peptide C0202-03-01]
- S/N ELISA value (C*02:02 [1]): very low S/N ELISA values
- normalized ELISA OD (C*02:02 [1]): very low normalized ELISA values

Sequence: DAVPFPISL [Peptide C0202-01]
- ligand presentation (C*02:02 [2]): Positive

Sequence: TJANYFHVL (TXANYFHVL; not fully specified) [Peptide B3503-04-01]
- S/N ELISA value (B*35:03 [3]): very low S/N ELISA values
- normalized ELISA OD (signal to background) (B*35:03 [3]): very low normalized ELISA values

Sequence: KIRDLLPVM [Peptide C0202-04]
- ligand presentation (C*02:02 [2]): Positive

Sequence: FJYSDFHFI [Peptide A0203-02-01]
- S/N ELISA value (HLA-A*02:03): very low S/N ELISA values
- normalized ELISA OD (signal to background) (HLA-A*02:03): very low normalized ELISA values

Sequence: SYMSTFPLF [Peptide C1402-01]
- Kd (C*14:02): 0.1 nM

Sequence: YYRYPTGESY [Peptide C1402-03]
- Kd (C*14:02): 0.1 nM

Sequence: APEEHPVLL [Peptide B3503-03]
- ligand presentation (B*35:03 [4]): Positive

Sequence: TPAJYFHVL (TPA[code J]YFHVL; not fully specified; reading uncertain) [Peptide B3503-04-02]
- S/N ELISA value (B*35:03 [3]): highest S/N value
- normalized ELISA OD (signal to background) (B*35:03 [3]): highest normalized ELISA OD value

- S/N ELISA value (C*02:02 [1]): ~8
- normalized ELISA OD (C*02:02 [1]): ~8
Sequence: FAAEAQKL [Peptide C0202-02]
- ligand presentation (C*02:02 [2]): Positive

Sequence: ETTNWLWAF [Peptide A2601-02]
- Kd (A*26:01): 2 nM

Sequence: DVVPMVTQM [Peptide A2601-03]
- Kd (A*26:01): 3 nM

Sequence: TPANYFHVL [Peptide B3503-04]
- ligand presentation (B*35:03 [4]): Positive
- S/N ELISA value (B*35:03 [3]): highest OD value
- normalized ELISA OD (signal to background) (B*35:03 [3]): highest OD value

Sequence: FEFTSFFY [Peptide B1801-01]
- IC50 (B*18:01): 0.1 nM

Sequence: DTITNVTTM [Peptide A2601-05]
- Kd (A*26:01): 4 nM

Sequence: YPYPYPHTAAFSKLIYL [Peptide B3503-05]
- ligand presentation (B*35:03 [4]): Positive

Sequence: FAAJAQKL (FAAXAQKL; not fully specified) [Peptide C0202-03-02]
- S/N ELISA value (C*02:02 [1]): 6
- normalized ELISA OD (C*02:02 [1]): 6

Sequence: TYLQSLASL [Peptide C1402-02]
- Kd (C*14:02): 0.1 nM

Sequence: SYMSTFPLF [Peptide C0202-05]
- ligand presentation (C*02:02 [2]): Positive

Sequence: FAAEAJKL (FAAEA[code J]KL; not fully specified; reading uncertain) [Peptide C0202-03-03]
- S/N ELISA value (C*02:02 [1]): highest S/N value
- S/N ELISA value (C*02:02 [1]; listed as C0202-02-03): 8
- normalized ELISA OD (C*02:02 [1]): highest normalized ELISA OD value
- normalized ELISA OD (C*02:02 [1]; listed as C0202-02-03): 8

Sequence: IPAEGRVAL [Peptide B3503-02]
- ligand presentation (B*35:03 [4]): Positive

Sequence: FMYEGDTPL [Peptide C1402-04]
- Kd (C*14:02): 0.1 nM

Sequence: DEFKPIVQY [Peptide B1801-02]
- IC50 (B*18:01): 3.9 nM

- S/N ELISA value (C*02:02 [1]): highest S/N value
- normalized ELISA OD (C*02:02 [1]): highest normalized OD value
Sequence: IAKSGTSEF (FAAEAQKL) [Peptide C0202-03]
- ligand presentation (C*02:02 [2]): Positive

- S/N ELISA value (C*02:02 [1]): very low S/N ELISA values
- normalized ELISA OD (C*02:02 [1]): very low normalized ELISA values
Sequence: FAAEAQKJ (FAAEAQKX; not fully specified) [Peptide C0202-03-04]
